14 molecules from US9862746B2, “Compositions and methods relating to hindering DOT1L recruitment by MLL-fusion proteins” (The Regents of the University of Michigan, priority 2013, dated 2018) can be followed below.

For orientation: IC50 means the concentration that gives 50% inhibition. The Kd is a measure of binding affinity in units of concentration. Usually Ki stands for a dissociation constant, usually derived from enzyme kinetics or from competition with a known ligand.

Like-named read-outs stand apart in the source and are kept apart here. Where a SMILES comes first, the peptide text is derived from it.

Assay [1] concerns the target T1, AF9 (Homo sapiens, UniProt P42568).
T1 sequence (P42568 497-568): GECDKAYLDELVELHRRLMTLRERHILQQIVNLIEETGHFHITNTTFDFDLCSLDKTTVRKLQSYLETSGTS
Nature of the assay: SPR competitive binding assay of small molecules, AF9-DOT1L. Also on record: against AF9(497-568) and ENL (489-559) proteins running different tested concentrations over CM5 chip; GB1 (pGB1-LIC vector); made in house; host or cells: Escherichia coli BL21 (DE3). The text has this: Several secondary assays have already been developed to support hit confirmation and the hit-to-probe optimization process. The established and optimized SPR-based competitive assay utilizing DOT1L protein (826-1095) immobilized on the CM5 sensor chip was used as a secondary counter screen assay to validate binding of compounds to AF9. […] Both assays gave similar IC50 values.
(§1) To further validate the binding of the confirmed compounds and identify potential promiscuous inhibitors, several secondary assays have been developed to support hit confirmation and the hit-to-probe optimization process. In order to determine that the compounds bind effectively to the target and disrupt protein-protein interaction, a SPR competitive binding assay was used. This assay uses a platform that differs from the FP-based assay where DOT1L recombinant protein (residues […]) is immobilized on a CM5 chip, allowing for testing of the inhibitors for their ability to disrupt AF9-DOT1L protein-protein interactions.

Assay [2] has as its target T2, ENL (Homo sapiens, UniProt Q03111).
T2 construct: against AF9(497-568) and ENL (489-559) proteins running different tested concentrations over CM5 chip; MBP (pMSCG9-LIC vector); made in house; host or cells: Escherichia coli BL21 (DE3)
T2 sequence (Q03111 489-559): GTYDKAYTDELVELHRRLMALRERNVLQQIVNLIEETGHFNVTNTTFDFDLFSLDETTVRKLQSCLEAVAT
Nature of the assay: Solution competitive SPR assay of peptides, ENL-DOT1L interaction. Format: binding. The settings on record: CM5 chip with immobilized DOT1L protein, read-out: IC50 ± SD ENL. On the procedure:
Solution competitive SPR based assay was performed to determine the IC50 values of DOT1L peptides. […] Response units (RU) were measured at 15 seconds in the dissociation phase and the specific binding was calculated by subtracting the control surface (Fcl) signal from the surfaces with immobilized Mocr-DOT1L. IC50 values were determined by non-linear least squares analysis using Graph Pad Prism 5.0 software.
A general note: Surface plasmon resonance follows binding to a sensor surface in real time, without labels.

Assay [3] has as its target T2, ENL. Nature of the assay: SPR competitive binding assay of small molecules, ENL. The settings on record: SPR competitive based assay; read-out: ENL IC50 ± SD.
Excerpt: as §1
This class of compounds was also tested for their binding against ENL protein, which is highly homologous with AF9.

The target in a further assay is T3, AF9 (497-568) (Homo sapiens, UniProt P42568).
T3 construct: human AF9 (residues 497-568); GB1 (pGB1-LIC vector); made in house; host or cells: Escherichia coli BL21 (DE3)
T3 sequence (P42568 497-568): T1 sequence (P42568 497-568)
The experiment in a line: SPR binding of AF9 to immobilized DOT1L constructs. To be noted: DOT1L construct immobilized on CM5 sensor chip, read-out: AF9 (497-568) Kd ± SD. The text has this:
(§2) AF9 and ENL are two of the most common MLL fusion proteins (see, e.g., Daser A, Rabbitts T H (2004) Genes & development 18: 965-974) and belong to the YEATS protein family (see, e.g., Schulze J M, et al., (2009) Biochem Cell Biol 87: 65-75). Both of these two proteins consist of N-terminal YEATS domain and a C-terminal hydrophobic domain (see, e.g., Zhang W, et al., (2007) J Clin Invest 117: 773-783). AF9 and ENL shared high homology in the C-terminal domain and it had been shown that through this domain AF9/ENL are involved in the PPI which is crucial for MLL leukemia transformation (see, e.g., Dobson C L, et al., (1999) Embo J 18: 3564-3574; Mueller D, et al., (2007) Blood 110: 4445-4454; Yokoyama A, et al., (2010) Cancer cell 17: 198-212). The interaction of AF9 or ENL with DOT1L has been reported previously by co-immunoprecipitation and yeast 2-hybrid studies (see, e.g., Biswas D, et al., (2011) PNAS 108: 15751-15756; Yokoyama A, et al., (2010) Cancer cell 17: 198-212; Zhang W, et al., (2006) J Biol Chem 281: 18059-18068; Zhang W, et al., (2007) J Clin Invest 117: 773-783; Mueller D, et al., (2007) Blood 110: 4445-4454). However, there is a lack of detailed biochemical and biophysical characterization of this interaction. To understand the molecular basis of DOT1L interaction with MLL-fusion proteins, these PPIs were analyzed using surface plasma resonance (SPR). An SPR assay was developed to quantify the binding affinity between full length DOT1L protein and MLL-fusion proteins. For that purpose, the flag-tagged full length DOT1L protein was transiently transfected in HEK 293 cells and after 48 hours transfection the flag-tagged DOT1L protein was captured from the HEK 293 whole cell lysate on an anti-flag antibody-coated biosensor chip (FIG. 1B and FIG. 14). The recombinant C-terminal domain from human AF9 (residues 497-568) and the corresponding segment from ENL protein (residues 489-559) were cloned, expressed and purified for the biochemical binding studies (FIG. 1A). […] For the first time these studies quantitatively determined the binding affinity of DOT1L to AF9 and ENL and confirmed that DOT1L directly interacts with AF9 and ENL and has about six folds higher affinity against AF9 in comparison with ENL.
(§3) Surface Plasmon Resonance (SPR) binding studies—All SPR based experiments were performed on a BIAcore 2000 (BIAcore, GE Healthcare) instrument. Different tested DOT1L recombinant proteins were immobilized on a CM5 sensor chip by standard EDC/NHS coupling chemistry followed by ethanolamine deactivation of the surfaces. For immobilization of full length Flag-DOT1L protein, anti-Flag antibody (Sigma, Anti-FLAG M2) was immobilized on CM5 chip by the same amine coupling chemistry. HEK293 whole cells lysate with overexpressed Flag-DOT1L at 2.4 μg/l total protein concentration was injected over the Flag antibody surface, followed by injecting of AF9 and ENL in different concentrations. […] The Fcl surface was used as a control surface and was treated in the same manner as the active surfaces but in the absence of immobilized protein. Binding parameters, kon, koff and Kd were calculated by simultaneous non-linear regression using BIAEvaluation software.

The next assay addresses T4, ENL (489-559) (Homo sapiens, UniProt Q03111).
T4 construct: ENL protein (residues 489-559); MBP (pMSCG9-LIC vector); made in house; host or cells: Escherichia coli BL21 (DE3)
T4 sequence (Q03111 489-559): T2 sequence (Q03111 489-559)
The experiment in a line: SPR binding of ENL to immobilized DOT1L constructs. To be noted: DOT1L construct immobilized on CM5 sensor chip, read-out: ENL (489-559) Kd ± SD.
Excerpt: as §2, §3

Assay [4] addresses T1, AF9. Nature of the assay: Optimized competitive FP binding assay (N-Flu-DOT1L / AF9). More on the design: the recombinant GB1-AF9 protein (residues 497-568); made in house; host or cells: Escherichia coli BL21 (DE3).
[5] abbreviates: SPR competitive, read-out: IC50, inhibition of AF9-DOT1L interaction.
The mark [6] stands for this setting: SPR competitive based assay, read-out: AF9 IC50 ± SD.

Regarding `O=c1c(O)cccc2cc(O)c(O)c(O)c12` [CCG-38505], at AF9 [1] (setting [5]), the IC50 came out at 5720 nM.

As for `CC[C@H](C)[C@H](NC(=O)[C@H](CO)NC(=O)[C@H](C)NC(=O)[C@@H]1CCCN1C(=O)[C@H](CC(C)C)NC(C)=O)C(=O)N1CCC[C@H]1C(=O)N[C@@H](CC(C)C)C(=O)N[C@@H](CO)C(=O)N[C@H](C(=O)N[C@H](C(N)=O)C(C)C)[C@@H](C)O` [Compound I867A] (Ac-LPASIPLSTV-NH2), the concentration for half-maximal inhibition (IC50) at ENL [2] is more than 200000 nM.

Take `O=C(c1cc(O)c(O)c(O)c1)c1ccc(O)c(O)c1O` [CCG-208095]: the half-inhibitory concentration (IC50) at AF9 [1] (setting [5]) amounted to 6270 nM.

For `CC1(C)CC(=O)C2=C(C1)Nc1ccccc1N(S(C)(=O)=O)C2c1cccs1` (stereo not shown) [Compound 51], the IC50 at ENL [3], on AF9 [1] (setting [6]) and on AF9 [1] (setting [5]) was more than 200000 nM throughout.

In the case of `Cc1ccc(S(=O)(=O)N2c3ccccc3NC3=C(C(=O)CC(C)(C)C3)C2c2ccco2)cc1` (stereo not shown) [Compound 41], the figures for the concentration for half-maximal inhibition (IC50) on ENL [3] and on AF9 [1] (setting [6]) were 33200 ± 8700 nM and 46400 ± 12400 nM, respectively.

As to “DOT1L (1-1537): Flag-tagged full length human DOT1L protein”, the equilibrium dissociation constant (Kd) was 33 ± 4 nM with AF9 (497-568) and 206 ± 80 nM with ENL (489-559).

As to `CC[C@H](C)[C@H](NC(=O)[C@@H]1CCCN1C(=O)[C@H](CC(C)C)NC(C)=O)C(=O)N[C@@H](CO)C(=O)N[C@H](C(=O)N1CCC[C@H]1C(=O)N[C@@H](CC(C)C)C(=O)N[C@@H](CO)C(=O)N[C@@H](C)C(=O)N[C@H](C(N)=O)C(C)C)[C@@H](C)CC` [Compound T873A] (Ac-LPISIPLSAV-NH2), the Ki on AF9 [4] turned out to be 203 nM.

Regarding `Cc1ccc(C)c(S(=O)(=O)N2c3ccccc3NC3=C(C(=O)CCC3)C2c2cccs2)c1` (stereo not shown) [Compound 52], the 50% inhibitory concentration (IC50) at ENL [3] was 25100 ± 2500 nM; at AF9 [1] (setting [6]), 43100 ± 800 nM.

B1: DOT1L (826-937): recombinant truncated DOT1L construct (protein)
chain: SPQDPRPLSPGALQLAGEKSSEKGLRERAYGSSGELITSLPISIPLSTVQPNKLPVSIPLASVVLPSRAERARSTPSPVLQPRDPSSTLEKQIGANAHGAGSRSLALAPAGF
As for B1, the figures for the equilibrium dissociation constant (Kd) with AF9 (497-568) and with ENL (489-559) were 78 ± 15 nM and 81 ± 6 nM, respectively.

B2: DOT1L (826-958): recombinant truncated DOT1L construct (protein)
chain: SPQDPRPLSPGALQLAGEKSSEKGLRERAYGSSGELITSLPISIPLSTVQPNKLPVSIPLASVVLPSRAERARSTPSPVLQPRDPSSTLEKQIGANAHGAGSRSLALAPAGFSYAGSVAISGALAGSPASLTP
Turning to B2, the Kd in the assay with AF9 (497-568) turned out to be 92 ± 8 nM; in the assay with ENL (489-559), 122 ± 16 nM.

B3: DOT1L (826-1095): recombinant DOT1L construct (protein)
chain: SPQDPRPLSPGALQLAGEKSSEKGLRERAYGSSGELITSLPISIPLSTVQPNKLPVSIPLASVVLPSRAERARSTPSPVLQPRDPSSTLEKQIGANAHGAGSRSLALAPAGFSYAGSVAISGALAGSPASLTPGAEPATLDESSSSGSLFATVGSRSSTPQHPLLLAQPRNSLPASPAHQLSSSPRLGGAAQGPLPEASKGDLPSDSGFSDPESEAKRRIVFTITTGAGSAKQSPSSKHSPLTASARGDCVPSHGQDSRRRGRRKRASAG
B3: the equilibrium dissociation constant (Kd) with AF9 (497-568) was found to be 111 nM; with ENL (489-559), 238 nM.

B4: DOT1L (854-1095): recombinant truncated DOT1L construct (protein)
chain: AYGSSGELITSLPISIPLSTVQPNKLPVSIPLASVVLPSRAERARSTPSPVLQPRDPSSTLEKQIGANAHGAGSRSLALAPAGFSYAGSVAISGALAGSPASLTPGAEPATLDESSSSGSLFATVGSRSSTPQHPLLLAQPRNSLPASPAHQLSSSPRLGGAAQGPLPEASKGDLPSDSGFSDPESEAKRRIVFTITTGAGSAKQSPSSKHSPLTASARGDCVPSHGQDSRRRGRRKRASAG
With B4, the values for the Kd in the assay with AF9 (497-568) and with ENL (489-559) were 135 ± 4 nM and 148 ± 14 nM, respectively.

B5: DOT1L (925-1095): recombinant truncated DOT1L construct (protein)
chain: AGSRSLALAPAGFSYAGSVAISGALAGSPASLTPGAEPATLDESSSSGSLFATVGSRSSTPQHPLLLAQPRNSLPASPAHQLSSSPRLGGAAQGPLPEASKGDLPSDSGFSDPESEAKRRIVFTITTGAGSAKQSPSSKHSPLTASARGDCVPSHGQDSRRRGRRKRASAG
Consider B5, for which the Kd with AF9 (497-568) was found to be 1820 nM; with ENL (489-559), 6220 nM.

B6: DOT1L (854-925): recombinant truncated DOT1L construct, 72 amino acids (protein)
chain: AYGSSGELITSLPISIPLSTVQPNKLPVSIPLASVVLPSRAERARSTPSPVLQPRDPSSTLEKQIGANAHGA
For the molecule B6, the results for the equilibrium dissociation constant (Kd) with AF9 (497-568) and with ENL (489-559) were 42 nM and 90 nM, respectively.
